Test [1] has as its target T1, biotin-labeled IL-2 with a human Fc-tag (Sanyou Biopharmaceutical, GenBank Accession No: P60568-1) (UniProt P60568 21-153, biotin-labeled (site not stated)).
T1 construct: Bought reagent; also called biotinylated IL-2-Fc; not shown: human Fc-tag
The experiment in a line: competition ELISA: antibody titrated, pre-incubated with biotin-IL-2-Fc (5 µg/mL); competitor coated IL-2Rβ-Fc. As for the experimental part: (§1) IL-2Rβ-Fc (CJ82, Novoprotein) was diluted to 8 μg/mL with PBS and added at 30 μL/well to coat an ELISA plate, and the plate was incubated overnight at 4° C. The plate was washed with PBST 3 times. The plate was blocked with 1% BSA for 1 h at room temperature and washed with PBST 3 times. […] The plate was incubated at room temperature for 1 h, and washed with PBST 3 times. 30 μL of secondary antibody NeutrAvidin-HRP diluted in a 1:6000 ratio was added, and the plate was incubated at room temperature for 1 h and washed with PBST 9 times. 30 μL of TMB was added for color developing for 5-10 min at room temperature, then 30 μL of 2 M HCl or H₂SO₄ was added to terminate the reaction. The plate was read for data by a microplate reader at OD 450.

Test [2] concerns the target T1, biotin-labeled IL-2 with a human Fc-tag …. The experiment in a line: ELISA, antibody titrated and captured by anti-human IgG, biotin-IL-2-Fc 2 µg/mL. As for the experimental part: Anti-human IgG (STAR161, Bio-rad) was diluted to 2 μg/mL with PBS and added at 30 μL/well to coat an ELISA plate, and the plate was incubated overnight at 4° C. The plate was washed with PBST 3 times. The plate was blocked with 1% BSA for 1 h at room temperature and washed with PBST 3 times. […] 30 μL of the antibody solution was added to an ELISA plate, and the plate was incubated at room temperature for 1 h and washed with PBST 3 times. […] The plate was incubated at room temperature for 1 h and washed with PBST 3 times. 30 μL of secondary antibody NeutrAvidin-HRP diluted in a 1:6000 ratio was added. The plate was incubated at room temperature for 1 h and washed with PBST 9 times. 30 μL of TMB was added for color developing for 5-10 min at room temperature, then 30 μL of 2M HCl or H₂SO₄ was added to terminate the reaction. The plate was read for data by a microplate reader at OD 450.
For orientation: An ELISA detects its analyte on a solid surface through an enzyme-linked reagent.

Test [3] concerns the target T2, IL-2-His (CX66, Novoprotein) (UniProt P60568 21-153).
T2 construct: Bought reagent; not shown: His tag
The experiment in a line: Octet: reading at 230 s of IL-2-His (100 nM) + antibody (500 nM) on biotin-IL-2Rα-Fc sensor; lower = stronger blocking. As to the method:
A Streptavidin biosensor (Fortebio, #18-5020) was immersed in 200 μL of KB buffer (PBS, pH 7.4, 0.05% tween-20, 0.1% BSA) for 60 s for the wetting treatment. Then, biotinylated IL-2Rα-Fc (CJ78, Novoprotein) was diluted to 10 μg/mL with the KB buffer, and the sensor was immersed in 200 μL of the solution for 150 s. The sensor was immersed in the KB buffer for 60 s to elute excess IL-2Rα. […] The sensor was immersed in the mixture for 300 s for association. […] The values at 230 s after the beginning of the binding were read.

For test [4], the target named is T1, biotin-labeled IL-2 with a human Fc-tag …. The experiment in a line: Octet: biotin-IL-2-Fc sensor loaded with antibody (500 nM), reading at 230 s of IL-2Rβ-Fc (8000 nM) binding; lower = stronger blocking. As for the experimental part:
A Streptavidin biosensor (Fortebio, #18-5020) was immersed in 200 μL of KB buffer (PBS, pH 7.4, 0.05% tween-20, 0.1% BSA) for 60 s for the wetting treatment. […] The IL-2Rβ-Fc (CJ82, Novoprotein) was diluted to a final concentration of 8000 nM with the KB buffer, and the sensor was immersed in the antibody solution for association for 300 s. […] The values at 230 s after the beginning of the binding of IL-2Rβ-Fc were read.

Test [5] has the same target. The experiment in a line: competition ELISA: antibody titrated, pre-incubated with biotin-IL-2-Fc (1 µg/mL); competitor coated IL-2Rα-Fc. As for the experimental part:
as §1, with “IL-2Rα-Fc (CJ78,” for “IL-2Rβ-Fc (CJ82,”, “Novoprotein) (Accession #NP_000408)” for “Novoprotein)”, “0.5” for “8”

The next test concerns the target IL-2 (C013, Novoprotein) (UniProt P60568 21-153). The experiment in a line: SPR (Biacore T200), antibody captured on Protein A chip, IL-2 analyte, 1:1 model. As for the experimental part:
The solutions flowed at a flow rate of 30 μL/min for dissociation for 300 s. The reaction signals were detected in real time to obtain association and dissociation curves. After the dissociation was completed for each assay cycle, the chip was washed and regenerated with 10 mM Gly-HCl, pH 2.0.
For orientation: Surface plasmon resonance follows binding to a sensor surface in real time, without labels.

T1 sequence (P60568 21-153 limits assumed, one chain of several): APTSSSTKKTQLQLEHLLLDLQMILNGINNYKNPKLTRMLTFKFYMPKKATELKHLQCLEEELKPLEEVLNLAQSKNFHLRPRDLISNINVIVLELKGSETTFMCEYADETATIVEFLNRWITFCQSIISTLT
Chain of IL-2 (C013, Novoprotein) (P60568 21-153 limits assumed): as the sequence (P60568 21-153 limits assumed, one chain of several) above
T2 sequence (P60568 21-153 limits assumed): as the sequence (P60568 21-153 limits assumed, one chain of several) above

B1: A3-21 full-length fully human anti-IL-2 antibody (antibody, human IgG1, lambda, L234A L235A, V domains shown)
VH: EVQLLESGGGLAQPGGSLRLSCAGSGFTFSSYAMSWVRQAPGKGLEWVSGITGTGYRTYYADSVKGRFTVSRDNSRNTVYLQMNSLRAEDTAVYYCVRESGHYYGWFDSWGQGTLVTVSS
VL: QSALTQPPSVSGAPGQRVTISCTGSSSNIGAGYNVHWYQQVPGTVPKLLIDGKGNRPSGVPDRFSGSKSGTSASLAITGLQAEDEADYYCQSYDYMLSGSVVFGRGTKLTVLG
notes: Human IgG1 with LALA mutation
What is called IC50 is the concentration that gives 50% inhibition. Usually EC50 stands for the midpoint of the concentration-response curve. Take B1: the half-inhibitory concentration (IC50) in test [1] came to 3.48 µg/mL; in test [5], 1.46 µg/mL. The EC50 in test [2] came to 1.35 µg/mL. The “Values for blocking IL-2Rα at an Octet level” value (from here on “Values for blocking IL-2Rα”) in test [3] came to 0.428. The “Values for blocking IL-2Rβ at an Octet level” value (from here on “Values for blocking IL-2Rβ”) in test [4] came out at 0.003.

B2: B2-15 full-length fully human anti-IL-2 antibody (antibody, human IgG1, kappa, L234A L235A, V domains shown)
VH: EVQLLESGAEVKKPGASVKVSCKASGYTFTSYYMHWVRQAPGQGLEWMGIINPSGGSTSYAQKFQGRVTMTRDTSTSTVYMELSSLRSEDTAVYYCAREGNSSGYYNAFDIWGQGTMVTVSS
VL: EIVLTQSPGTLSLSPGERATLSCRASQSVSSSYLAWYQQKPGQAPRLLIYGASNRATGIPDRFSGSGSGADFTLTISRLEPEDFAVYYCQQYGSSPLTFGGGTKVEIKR
notes: Human IgG1 with LALA mutation, kappa light chain
What is called Kd is the constant that tells how readily two partners part at equilibrium. As a reminder, the koff is the first-order rate constant of dissociation. One may read the kon as the rate constant with which the complex forms. On to B2, for which the half-maximal inhibitory concentration (IC50) in test [1] is 3.04 µg/mL. The half-maximal effective concentration (EC50) in test [2] was 2.12 µg/mL. In the test with IL-2 (C013, Novoprotein), the affinity, expressed as Kd, was 30.6 nM; the off-rate (koff) stood at 0.0448 s⁻¹; the on-rate (kon) worked out at 1.46e+06 M⁻¹ s⁻¹. Also, in test [3], the “Values for blocking IL-2Rα” value stood at 0.7. Further, the “Values for blocking IL-2Rβ” value in test [4] came to 0.056.

B3: A2-22 full-length fully human anti-IL-2 antibody (antibody, human IgG1, kappa, L234A L235A, V domains shown)
VH: QVQLVQSGAEVKKPGASVKVSCKASGYTFTSYYMHWVRQAPGQGLEWMGIINPSGGSTSYAQKFQGRVTMTRDTSTSTVYMELSSLRSEDTAVYYCAREDWMEYEYYYGMDVWGQGTLVTVSS
VL: EIVLTQSPGTLSLSPGERATLSCRASQSVSNNYLAWYQQKPGQAPRLLIYGASSRATGIPDRFSGSGSGTDFTLTISRLEPEDFAVYSCQQYGSSPLTFGQGTRLEIKR
notes: Human IgG1 with L234A/L235A (LALA), kappa light chain; expressed in HEK293
Consider B3, for which, in test [1], the IC50 came to 2.73 µg/mL. In test [2], this molecule displayed an EC50 of 1.29 µg/mL. Moreover, in the test with IL-2 (C013, Novoprotein), the affinity, expressed as Kd, was 39.8 nM; the koff stood at 0.0527 s⁻¹; the kon is 1.33e+06 M⁻¹ s⁻¹. Besides, the “Values for blocking IL-2Rα” value in test [3] turned out to be 0.848. The “Values for blocking IL-2Rβ” value in test [4] amounted to 0.042.

B4: D2-60 full-length fully human anti-IL-2 antibody (antibody, human IgG1, kappa, L234A L235A, V domains shown)
VH: QVQLVQSGAEVKKPGASVKVSCKASGYTFTSYGISWVRQAPGQGLEWMGWISAYNGNTNYAQKLQGRVTMTTDTSTSTAYMELRSLRSDDTAVYYCAREYSSWYSGGMDVWGQGTTVTVSS
VL: DIQMTQSPSSLSASVGDRVTITCRASQGISNYLAWYQQKPGKVPKLLIYAASTLQSGVPSRFSGSGSGTDFTLTISSLQPEDVATYYCQKYDSAPFTFGQGTRLEIKR
notes: as for B2
Consider B4, for which, in test [1], the IC50 amounted to 8.27 µg/mL. Besides, the EC50 in test [2] turned out to be 1.43 µg/mL. In the test with IL-2 (C013, Novoprotein), this molecule yielded a Kd of 12.8 nM, a koff of 0.00651 s⁻¹ and a kon of 509000 M⁻¹ s⁻¹. For the same molecule, the “Values for blocking IL-2Rα” value in test [3] is 0.754. Also, the “Values for blocking IL-2Rβ” value in test [4] stood at 0.086.

B5: C2-53 full-length fully human anti-IL-2 antibody (antibody, human IgG1, kappa, L234A L235A, V domains shown)
VH: EVQLVESGGGLVQPGRSLILSCAASGFTFDDYAMHWVRQAPGKGLEWVSGISWNSGSIGYADSVKGRFTISRDNAKNSLYLQMNSLRAEDTALYYCAKDQLRWGTYYYYGMDVWGQGTTVTVSS
VL: DIQMTQSPSTLSASVGDRVTITCRASQSVSIWVAWYQQKPGKAPKLLIYKASSLERGVPTRFSGSGSGTEFTLTISSLQPEDFATYHCQQYDTGATFGQGTKVEMKR
notes: as for B2
With B5, the IC50 in test [1] worked out at 1.44 µg/mL. The molecule further yielded a concentration giving a half-maximal response (EC50) in test [2] of 0.73 µg/mL. In the test with IL-2 (C013, Novoprotein), this molecule came in with a Kd of 0.267 nM, a koff of 0.00437 s⁻¹ and a kon of 1.64e+07 M⁻¹ s⁻¹. Also, the “Values for blocking IL-2Rα” value in test [3] turned out to be 0.41. In test [4], the “Values for blocking IL-2Rβ” value came to 0.017. Moreover, the concentration for half-maximal inhibition (IC50) in test [5] came to 0.659 µg/mL.

B6: D3-68 full-length fully human anti-IL-2 antibody (antibody, human IgG1, kappa, L234A L235A, V domains shown)
VH: QVQLVQSGPEVKKPGASVKVSCKASGYTFTSYGISWVRRAPGQGLEWMGWISAYNGNTNYAQKLQGRVTMTTDTSTSTAYMELRSLRSDDTAVYYCARDLQSPTYYYGSGVIDYWGQGTLVTVSS
VL: DIQLTQSPSTLSASVGDRVTISCRASRAVSPWLAWYQHRPGQAPKLLIYAASSLQSGVPSRFSGSGSGTDFTLTISSLQPEDFATYYCQQYRSYPFTFGPGTTVDIRR
notes: as for B2
B6 yielded a half-inhibitory concentration (IC50) in test [1] of 2.13 µg/mL. It took 1.21 µg/mL to reach a half-maximal effect in test [2] (EC50). In addition, in the test with IL-2 (C013, Novoprotein), the Kd worked out at 4.72 nM, the off-rate (koff) came out at 0.0546 s⁻¹ and the association rate constant (kon) was 1.16e+07 M⁻¹ s⁻¹. In test [3], the “Values for blocking IL-2Rα” value was 0.473. The “Values for blocking IL-2Rβ” value in test [4] was 0.027. This molecule showed an IC50 in test [5] of 1.2 µg/mL.
